Laboratory results taken from patent US20200247894A1 (Regeneron, published 2020).

Key:
[1] = target: T1, Macaca fascicularis IL2Rγ extracellular domain expressed with a C-terminal myc-myc-hexahistidine tag (Macaca fascicularis); assay: SPR Biacore 4000, mAb captured by anti-hFc, 37C, dissociation in PBS-T pH 7.4
T1 construct: also called mfIL-2Rg-MMH; mfIL-2RG-MMH
T1 chain: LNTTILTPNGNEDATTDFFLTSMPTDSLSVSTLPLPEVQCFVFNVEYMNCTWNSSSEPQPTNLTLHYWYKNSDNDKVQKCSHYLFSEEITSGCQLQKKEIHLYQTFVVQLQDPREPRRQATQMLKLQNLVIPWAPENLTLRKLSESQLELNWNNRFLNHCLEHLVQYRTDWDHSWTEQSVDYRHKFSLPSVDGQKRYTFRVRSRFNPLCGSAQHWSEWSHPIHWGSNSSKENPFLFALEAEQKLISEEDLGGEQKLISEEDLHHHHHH
Method in brief: (§1)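 kd obtained by fitting real-time sensorgrams to a 1:1 binding model, with dissociation monitored for 6 minutes in PBS-T at pH 6.0 or 7.4, 25° C or 37° C. Antibodies bearing human IgG4 Fc were captured via immobilized mouse anti-human Fc; analyte was MMH-tagged IL2Rγ.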

[2] = target: T1, Macaca fascicularis IL2Rγ extracellular …; assay: SPR Biacore 4000, mAb captured by anti-hFc, 37C, dissociation in PBS-T pH 6.0
Method in brief: as §1

[3] = target: T2, Human IL2Rγ extracellular domain expressed with a C-terminal myc-myc-hexahistidine tag (human); assay: SPR Biacore 4000, mAb captured by anti-hFc, HBS-ET, 25C; 25 C
T2 construct: also called hIL-2Rg-MMH; hIL-2RG-MMH
T2 chain: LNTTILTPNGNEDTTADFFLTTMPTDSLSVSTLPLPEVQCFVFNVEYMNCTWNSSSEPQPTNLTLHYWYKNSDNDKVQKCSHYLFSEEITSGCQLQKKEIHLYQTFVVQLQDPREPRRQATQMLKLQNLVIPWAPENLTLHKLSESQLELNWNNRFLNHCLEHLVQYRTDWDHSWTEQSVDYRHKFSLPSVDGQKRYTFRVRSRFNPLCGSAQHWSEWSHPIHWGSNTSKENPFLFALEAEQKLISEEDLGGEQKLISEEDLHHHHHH
Protocol: (§2) Equilibrium dissociation constants (KD values) for IL-2Rγ binding to purified anti-IL2Rγ monoclonal antibodies were determined using a Biacore 4000 instrument equipped with a real-time surface plasmon resonance biosensor. All binding studies were performed in 10 mM HEPES, 150 mM NaCl, 3 mM EDTA, and 0.05% v/v Surfactant Tween-20, pH 7.4 (HBS-ET) running buffer at 25° C. and 37° C. The Biacore sensor surface was first derivatized by amine coupling with a monoclonal mouse anti-human Fc antibody (GE, # BR-1008-39) to capture anti-IL2Rγ monoclonal antibodies.
(§3) The dissociation of monoclonal antibody bound IL2Rγ reagents were monitored for 8-10 minutes in HBS-ET running buffer. Kinetic association (kₐ) and dissociation (kd) rate constants were determined by fitting the real-time sensorgrams to a 1:1 binding model using Scrubber 2.0c curve fitting software. Binding dissociation equilibrium constants (KD) and dissociative half-lives (t_{1/2}) were calculated from the kinetic rate constants as: […]

[4] = target: T1, Macaca fascicularis IL2Rγ extracellular …; assay: SPR Biacore 4000, mAb captured by anti-hFc, HBS-ET, 25C
Method in brief: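 First, a mouse anti-human Fc antibody was amine-coupled to the chip; test mAbs were then captured and IL2Rγ reagents bound in HBS-ET, pH 7.4. Dissociation was tracked for 8-10 minutes before 1:1 fitting of the sensorgrams.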

[5] = target: T3, human IL2Rγ (endogenously expressed on cells) (human, UniProt P31785 23-369); assay: cell-based or functional assay
T3 sequence (looked up): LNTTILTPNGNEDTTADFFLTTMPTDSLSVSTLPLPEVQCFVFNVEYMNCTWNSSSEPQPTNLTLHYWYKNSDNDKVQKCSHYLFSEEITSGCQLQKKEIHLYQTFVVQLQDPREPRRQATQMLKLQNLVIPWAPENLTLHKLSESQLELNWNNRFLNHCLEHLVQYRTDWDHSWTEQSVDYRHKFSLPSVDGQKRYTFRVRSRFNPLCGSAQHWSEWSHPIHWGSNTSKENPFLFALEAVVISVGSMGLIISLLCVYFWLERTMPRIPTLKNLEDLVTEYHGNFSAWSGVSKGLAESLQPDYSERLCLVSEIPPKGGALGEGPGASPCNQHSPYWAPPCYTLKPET

[6] = target: T4, D2 domain of human IL2Rγ extracellular domain expressed with a C-terminal myc-myc-hexahistidine tag (human); assay: SPR, mAb captured on anti-hFc, 37 C
T4 construct: also called human IL2Rγ domain 2
T4 chain: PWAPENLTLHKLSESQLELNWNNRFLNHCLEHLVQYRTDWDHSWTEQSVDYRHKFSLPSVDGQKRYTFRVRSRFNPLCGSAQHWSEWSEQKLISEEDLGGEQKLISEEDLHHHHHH
Protocol: as §2

[7] = target: T5, D1 domain of human IL-2Rγ extracellular domain expressed with a C-terminal myc-myc-hexahistidine tag (human); assay: SPR, mAb captured on anti-hFc, 25 C
T5 construct: also called human IL2Rγ domain 1
T5 chain: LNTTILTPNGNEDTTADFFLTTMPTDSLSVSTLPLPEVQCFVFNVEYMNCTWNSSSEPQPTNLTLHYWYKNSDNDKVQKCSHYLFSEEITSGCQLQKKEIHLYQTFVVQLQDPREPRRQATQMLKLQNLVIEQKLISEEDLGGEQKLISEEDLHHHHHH
Protocol: as §2, §3

[8] = target: T5, D1 domain of human IL-2Rγ extracellular …; assay: SPR, mAb captured on anti-hFc, 37 C
Protocol: as §2, §3

[9] = target: T4, D2 domain of human IL2Rγ extracellular …; assay: SPR, mAb captured on anti-hFc, 25 C
Protocol: as §2

[10] = target: T4, D2 domain of human IL2Rγ extracellular …; assay: SPR, mAb captured on anti-hFc, 25 C; 25 C
Protocol: as §2

B1: H4H12926P2 (antibody, human IgG4 S228P, kappa, V domains shown)
VH: QVQLQQSGPGLVKPSQTLSLTCAISGDSVSSNIAAWNWIRLSPSRGLEWLGRTFFRSTWFYDYSLSVKGRITINPDTSKNQFSLHLNSVTPEDAAVYYCARTGRRWSLDYWGQGTLVTVSS
VL: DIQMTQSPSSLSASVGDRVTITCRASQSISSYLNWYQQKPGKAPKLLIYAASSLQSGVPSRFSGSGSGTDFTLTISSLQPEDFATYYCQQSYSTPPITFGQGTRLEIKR
notes: anti-IL2Rγ monoclonal antibody expressed with human IgG4 Fc
100 nM Ag Bound (RU) [1]: 25 RU | koff [1]: 0.0279 s⁻¹ | t1/2 [1]: 24 s | 100 nM Ag Bound (RU) [2]: 20 RU | koff [2]: 0.0303 s⁻¹ | t1/2 [2]: 24 s | Kd [3]: 132 nM | koff [3]: 0.0264 s⁻¹ | kon [3]: 200000 M⁻¹ s⁻¹ | t1/2 [3]: 24 s | 100 nM Ag Bound [4]: 11 RU | Kd [4]: 107 nM | koff [4]: 0.0261 s⁻¹ | kon [4]: 244000 M⁻¹ s⁻¹ | t1/2 [4]: 24 s

B2: H4H12913P2 (antibody, human IgG4 S228P, kappa, V domains shown)
VH: EVQLVESGGGVVRPGGSLRLSCAASGFTFDDYGMSWVRQAPGKGLEWISSINRNGGSADYADSVKGRFTISRDNAKNSLFLQMSSLRAEDTALYHCASGEFRFDYWGQGTLVTVSS
VL: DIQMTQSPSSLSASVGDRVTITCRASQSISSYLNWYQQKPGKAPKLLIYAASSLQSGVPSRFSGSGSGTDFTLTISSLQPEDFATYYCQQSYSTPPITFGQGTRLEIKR
notes: human IgG4
IC50; IL-4 250 pM; Ramos.2G6.4C10/STAT3-luc [5]: > 1e-07 M | IC50; IL-7 50 pM; NK92/hIL7R/STAT3-luc [5]: > 1e-07 M | IC50; IL-9 20 pM; NK92/hIL7R/STAT3-luc [5]: > 1e-07 M | IC50; IL-15 60 pM; NK92/hIL7R/STAT3-luc [5]: > 1e-07 M | Max Inhibition (%); IL-2 30 pM; NK92/hIL7R/STAT3-luc [5]: 24% | Max Inhibition (%); IL-4 250 pM; Ramos.2G6.4C10/STAT3-luc [5]: 55% | Max Inhibition (%); IL-7 50 pM; NK92/hIL7R/STAT3-luc [5]: 77% | Max Inhibition (%); IL-9 20 pM; NK92/hIL7R/STAT3-luc [5]: 57% | Max Inhibition (%); IL-15 60 pM; NK92/hIL7R/STAT3-luc [5]: 58% | 100 nM Ag Bound [6]: 16 RU | Kd [6]: 12.7 nM | koff [6]: 0.00337 s⁻¹ | kon [6]: 266000 M⁻¹ s⁻¹ | t½ [6]: 204 s | 100 nM Ag Bound [7]: 0 RU | binding result [7]: no binding (tested: 100 nM) | 100 nM Ag Bound [8]: 1 RU | 100 nM Ag Bound [9]: 37 RU | Kd [9]: 2.76 nM | koff [9]: 0.000708 s⁻¹ | kon [9]: 256000 M⁻¹ s⁻¹ | t½ [9]: 960 s

B3: H4H12927P2 (antibody, human IgG4 S228P, kappa, V domains shown)
VH: EVQLVESGGGVVRPGGSLRLSCATSGFTFDDYGMSWVRQVPGKGLEWVSSVNRNGGTTDYADSVKGRFTISRDNAKRSLFLQMNSLRAEDTALYHCATGELFFDYWGQGTLVTVSS
VL: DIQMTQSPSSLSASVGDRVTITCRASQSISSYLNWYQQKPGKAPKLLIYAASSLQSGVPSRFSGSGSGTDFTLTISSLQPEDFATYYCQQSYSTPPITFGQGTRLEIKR
notes: human IgG4
IC50; IL-7 50 pM; NK92/hIL7R/STAT3-luc [5]: > 1e-07 M | Max Inhibition (%); IL-2 30 pM; NK92/hIL7R/STAT3-luc [5]: 18% | Max Inhibition (%); IL-4 250 pM; Ramos.2G6.4C10/STAT3-luc [5]: 33% | Max Inhibition (%); IL-7 50 pM; NK92/hIL7R/STAT3-luc [5]: 46% | Max Inhibition (%); IL-15 60 pM; NK92/hIL7R/STAT3-luc [5]: 34% | 100 nM Ag Bound [7]: 0 RU | binding result [7]: no binding (tested: 100 nM) | 100 nM Ag Bound [8]: 1 RU | Kd [10]: 69.9 nM | koff [10]: 0.0166 s⁻¹ | kon [10]: 238000 M⁻¹ s⁻¹ | t½ [10]: 42 s

B4: H4H12874P (antibody, human IgG4 S228P, kappa, V domains shown)
VH: QVQLVESGGGVVQPGRSLRLSCAASGFNFRNFGMHWVRQAPGKGLEWVAGILYDGSSKYYADSVKDRFTISRDNSKNTLFLQMNSLRAEDTAMYYCAKEEDTAMVPFDSWGPGTLVTVSS
VL: DIQLTQSPSFLSASVGDRVTITCWASQGISSYLAWYQQKPGKAPTLLIYAASTLQSGVPSRFSGSGSGTEFTLTISSLQPEDFASYYCQQLKSYPLTFGGGTKVEIKR
notes: human IgG4
IC50; IL-4 250 pM; Ramos.2G6.4C10/STAT3-luc [5]: > 1e-07 M | IC50; IL-7 50 pM; NK92/hIL7R/STAT3-luc [5]: 4.1e-08 M | IC50; IL-9 20 pM; NK92/hIL7R/STAT3-luc [5]: > 1e-07 M | IC50; IL-15 60 pM; NK92/hIL7R/STAT3-luc [5]: > 1e-07 M | Max Inhibition (%); IL-2 30 pM; NK92/hIL7R/STAT3-luc [5]: 26% | Max Inhibition (%); IL-4 250 pM; Ramos.2G6.4C10/STAT3-luc [5]: 70% | Max Inhibition (%); IL-7 50 pM; NK92/hIL7R/STAT3-luc [5]: 93% | Max Inhibition (%); IL-9 20 pM; NK92/hIL7R/STAT3-luc [5]: 50% | Max Inhibition (%); IL-15 60 pM; NK92/hIL7R/STAT3-luc [5]: 55% | 100 nM Ag Bound [7]: 0 RU | 100 nM Ag Bound [8]: 1 RU | binding result [8]: no binding (tested: 100 nM) | Kd [10]: 214 nM | koff [10]: 0.0435 s⁻¹ | kon [10]: 203000 M⁻¹ s⁻¹ | t½ [10]: 18 s
